± gives the standard deviation of the averaged measurements.
What was measured:
MCF7 = assay: percentage of EdU-negative (G0-arrested) nuclei per well, 72 h; higher = more G0 arrest; details: reference: sequence is the full UniProt precursor, the tested protein was the secreted form or ectodomain
hTERT-HMEC = assay: as above; details: reference: sequence is the full UniProt precursor, the tested protein was the secreted form or ectodomain
[1] = protein concentration 0.02025 µM
[2] = protein concentration 0.2025 µM
[3] = protein concentration 0.0225 µM
[4] = protein concentration 0.01975 µM
[5] = protein concentration 0.1975 µM
[6] = protein concentration 0.0079375 µM
[7] = protein concentration 0.00885714 µM
[8] = protein concentration 0.0357143 µM
[9] = protein concentration 0.079375 µM
[10] = protein concentration 0.0885714 µM
[11] = protein concentration 0.357143 µM
[12] = protein concentration 0.0257143 µM
[13] = protein concentration 0.257143 µM
[14] = protein concentration 0.00825 µM
[15] = protein concentration 0.0825 µM
[16] = protein concentration 0.012845 µM
[17] = protein concentration 0.12845 µM
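Also: secreted proteins added to cultured cells, EdU pulse at the end, nuclei found by Hoechst imaging, EdU status from nuclear versus surrounding ring intensity ratio, PBS as neutral control.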

MKPATGLWVWVSLLVAAGTVQPSDSQSVCAGTENKLSSLSDLEQQYRALRKYYENCEVVMGNLEITSIEHNRDLSFLRSVREVTGYVLVALNQFRYLPLENLRIIRGTKLYEDRYALAIFLNYRKDGNFGLQELGLKNLTEILNGGVYVDQNKFLCYADTIHWQDIVRNPWPSNLTLVSTNGSSGCGRCHKSCTGRCWGPTENHCQTLTRTVCAEQCDGRCYGPYVSDCCHRECAGGCSGPKDTDCFACMNFNDSGACVTQCPQTFVYNPTTFQLEHNFNAKYTYGAFCVKKCPHNFVVDSSSCVRACPSSKMEVEENGIKMCKPCTDICPKACDGIGTGSLMSAQTVDSSNIDKFINCTKINGNLIFLVTGIHGDPYNAIEAIDPEKLNVFRTVREITGFLNIQSWPPNMTDFSVFSNLVTIGGRVLYSGLSLLILKQQGITSLQFQSLKEISAGNIYITDNSNLCYYHTINWTTLFSTINQRIVIRDNRKAENCTAEGMVCNHLCSSDGCWGPGPDQCLSCRRFSRGRICIESCNLYDGEFREFENGSICVECDPQCEKMEDGLLTCHGPGPDNCTKCSHFKDGPNCVEKCPDGLQGANSFIFKYADPDRECHPCHPNCTQGCNGPTSHDCIYYPWTGHSTLPQHARTPLIAAGVIGGLFILVIVGLTFAVYVRRKSIKKKRALRRFLETELVEPLTPSGTAPNQAQLRILKETELKRVKVLGSGAFGTVYKGIWVPEGETVKIPVAIKILNETTGPKANVEFMDEALIMASMDHPHLVRLLGVCLSPTIQLVTQLMPHGCLLEYVHEHKDNIGSQLLLNWCVQIAKGMMYLEERRLVHRDLAARNVLVKSPNHVKITDFGLARLLEGDEKEYNADGGKMPIKWMALECIHYRKFTHQSDVWSYGVTIWELMTFGGKPYDGIPTREIPDLLEKGERLPQPPICTIDVYMVMVKCWMIDADSRPKFKELAAEFSRMARDPQRYLVIQGDDRMKLPSPNDSKFFQNLLDEEDLEDMMDAEEYLVPQAFNIPPPIYTSRARIDSNRSEIGHSPPPAYTPMSGNQFVYRDGGFAAEQGVSVPYRAPTSTIPEAPVAQGATAEIFDDSCCNGTLRKPVAPHVQEDSSTQRYSADPTVFAPERSPRGELDEEGYMTPMRDKPKQEYLNPVEENPFVSRRKNGDLQALDNPEYHNASNGPPKAEDEYVNEPLYLNTFANTLGKAEYLKNNILSMPEKAKKAFDNPDYWNHSLPPRSTLQHPDYLQEYSTKYFYKQNGRIRPIVAENPEYLSEFSLKPGTVLPPPPYRHRNTVV
percentage of EdU-negative (MCF7; [1]): 26.2 ± 1.2%
percentage of EdU-negative (MCF7; [2]): 25.4 ± 1.2%
percentage of EdU-negative (hTERT-HMEC; [1]): 4.75 ± 0.55%
percentage of EdU-negative (hTERT-HMEC; [2]): 7.8 ± 0.72%

MKPLLVVFVFLFLWDPVLAGINSLSSEMHKKCYKNGICRLECYESEMLVAYCMFQLECCVKGNPAP [Q4QY38]
percentage of EdU-negative (MCF7; [3]): 26.33 ± 0.082%
percentage of EdU-negative (MCF7; protein concentration 0.225 µM): 27 ± 0.67%
percentage of EdU-negative (hTERT-HMEC; [3]): 4.56 ± 0.45%
percentage of EdU-negative (hTERT-HMEC; protein concentration 0.225 µM): 5.39 ± 1.7%

MKPNIIFVLSLLLILEKQAAVMGQKGGSKGRLPSEFSQFPHGQKGQHYSGQKGKQQTESKGSFSIQYTYHVDANDHDQSRKSQQYDLNALHKTTKSQRHLGGSQQLLHNKQEGRDHDKSKGHFHRVVIHHKGGKAHRGTQNPSQDQGNSPSGKGISSQYSNTEERLWVHGLSKEQTSVSGAQKGRKQGGSQSSYVLQTEELVANKQQRETKNSHQNKGHYQNVVEVREEHSSKVQTSLCPAHQDKLQHGSKDIFSTQDELLVYNKNQHQTKNLNQDQQHGRKANKISYQSSSTEERRLHYGENGVQKDVSQSSIYSQTEEKAQGKSQKQITIPSQEQEHSQKANKISYQSSSTEERRLHYGENGVQKDVSQRSIYSQTEKLVAGKSQIQAPNPKQEPWHGENAKGESGQSTNREQDLLSHEQKGRHQHGSHGGLDIVIIEQEDDSDRHLAQHLNNDRNPLFT
percentage of EdU-negative (MCF7; protein concentration 0.005 µM): 28.4 ± 1.1%
percentage of EdU-negative (MCF7; protein concentration 0.05 µM): 25.85 ± 0.061%
percentage of EdU-negative (hTERT-HMEC; protein concentration 0.005 µM): 6.42 ± 0.18%
percentage of EdU-negative (hTERT-HMEC; protein concentration 0.05 µM): 6.06 ± 1.2%

MKPPFLLALVVCSVVSTNLKMVSKRNSVDGCIDWSVDLKTYMALAGEPVRVKCALFYSYIRTNYSTAQSTGLRLMWYKNKGDLEEPIIFSEVRMSKEEDSIWFHSAEAQDSGFYTCVLRNSTYCMKVSMSLTVAENESGLCYNSRIRYLEKSEVTKRKEISCPDMDDFKKSDQEPDVVWYKECKPKMWRSIIIQKGNALLIQEVQEEDGGNYTCELKYEGKLVRRTTELKVTALLTDKPPKPLFPMENQPSVIDVQLGKPLNIPCKAFFGFSGESGPMIYWMKGEKFIEELAGHIREGEIRLLKEHLGEKEVELALIFDSVVEADLANYTCHVENRNGRKHASVLLRKKDLIYKIELAGGLGAIFLLLVLLVVIYKCYNIELMLFYRQHFGADETNDDNKEYDAYLSYTKVDQDTLDCDNPEEEQFALEVLPDVLEKHYGYKLFIPERDLIPSGTYMEDLTRYVEQSRRLIIVLTPDYILRRGWSIFELESRLHNMLVSGEIKVILIECTELKGKVNCQEVESLKRSIKLLSLIKWKGSKSSKLNSKFWKHLVYEMPIKKKEMLPRCHVLDSAEQGLFGELQPIPSIAMTSTSATLVSSQADLPEFHPSDSMQIRHCCRGYKHEIPATTLPVPSLGNHHTYCNLPLTLLNGQLPLNNTLKDTQEFHRNSSLLPLSSKELSFTSDIW [Q9NP60]
percentage of EdU-negative (MCF7; [4]): 24.9 ± 2.6%
percentage of EdU-negative (MCF7; [5]): 26.8 ± 1.9%
percentage of EdU-negative (hTERT-HMEC; [4]): 4.91 ± 0.99%
percentage of EdU-negative (hTERT-HMEC; [5]): 8.95 ± 0.26%

MKPPRPVRTCSKVLVLLSLLAIHQTTTAEKNGIDIYSLTVDSRVSSRFAHTVVTSRVVNRANTVQEATFQMELPKKAFITNFSMIIDGMTYPGIIKEKAEAQAQYSAAVAKGKSAGLVKATGRNMEQFQVSVSVAPNAKITFELVYEELLKRRLGVYELLLKVRPQQLVKHLQMDIHIFEPQGISFLETESTFMTNQLVDALTTWQNKTKAHIRFKPTLSQQQKSPEQQETVLDGNLIIRYDVDRAISGGSIQIENGYFVHYFAPEGLTTMPKNVVFVIDKSGSMSGRKIQQTREALIKILDDLSPRDQFNLIVFSTEATQWRPSLVPASAENVNKARSFAAGIQALGGTNINDAMLMAVQLLDSSNQEERLPEGSVSLIILLTDGDPTVGETNPRSIQNNVREAVSGRYSLFCLGFGFDVSYAFLEKLALDNGGLARRIHEDSDSALQLQDFYQEVANPLLTAVTFEYPSNAVEEVTQNNFRLLFKGSEMVVAGKLQDRGPDVLTATVSGKLPTQNITFQTESSVAEQEAEFQSPKYIFHNFMERLWAYLTIQQLLEQTVSASDADQQALRNQALNLSLAYSFVTPLTSMVVTKPDDQEQSQVAEKPMEGESRNRNVHSGSTFFKYYLQGAKIPKPEASFSPRRGWNRQAGAAGSRMNFRPGVLSSRQLGLPGPPDVPDHAAYHPFRRLAILPASAPPATSNPDPAVSRVMNMKIEETTMTTQTPAPIQAPSAILPLPGQSVERLCVDPRHRQGPVNLLSDPEQGVEVTGQYEREKAGFSWIEVTFKNPLVWVHASPEHVVVTRNRRSSAYKWKETLFSVMPGLKMTMDKTGLLLLSDPDKVTIGLLFWDGRGEGLRLLLRDTDRFSSHVGGTLGQFYQEVLWGSPAASDDGRRTLRVQGNDHSATRERRLDYQEGPPGVEISCWSVEL
percentage of EdU-negative (MCF7; [6]): 26.1 ± 0.6%
percentage of EdU-negative (MCF7; [7]): 24.7 ± 1.9%
percentage of EdU-negative (MCF7; [8]): 25.598 ± 0.0074%
percentage of EdU-negative (MCF7; [9]): 27.8 ± 0.46%
percentage of EdU-negative (MCF7; [10]): 22.7 ± 1.4%
percentage of EdU-negative (MCF7; [11]): 24.7 ± 1.2%
percentage of EdU-negative (hTERT-HMEC; [6]): 4.26 ± 0.31%
percentage of EdU-negative (hTERT-HMEC; [7]): 5.26 ± 0.59%
percentage of EdU-negative (hTERT-HMEC; [8]): 4.65 ± 0.14%
percentage of EdU-negative (hTERT-HMEC; [9]): 6.25 ± 0.86%
percentage of EdU-negative (hTERT-HMEC; [10]): 5.26 ± 0.17%
percentage of EdU-negative (hTERT-HMEC; [11]): 5.86 ± 0.71%

MKPVLPLQFLVVFCLALQLVPGSPKQRVLKYILEPPPCISAPENCTHLCTMQEDCEKGFQCCSSFCGIVCSSETFQKRNRIKHKGSEVIMPAN [Q8IUB5]
percentage of EdU-negative (MCF7; [3]): 25.88 ± 0.11%
percentage of EdU-negative (MCF7; protein concentration 0.225 µM): 23.6 ± 1%
percentage of EdU-negative (hTERT-HMEC; [3]): 4.99 ± 0.22%
percentage of EdU-negative (hTERT-HMEC; protein concentration 0.225 µM): 5.21 ± 0.23%

MKPWILLLVMFISGVVMLLPVLGSFWNKDPFLDMIRETEQCWVQPPYKYCEKRCTKIMTCVRPNHTCCWTYCGNICLDNEEPLKSMLNP [Q8NEX5]
percentage of EdU-negative (MCF7; [12]): 26 ± 0.26%
percentage of EdU-negative (MCF7; [13]): 26.31 ± 0.064%
percentage of EdU-negative (hTERT-HMEC; [12]): 5.54 ± 0.81%
percentage of EdU-negative (hTERT-HMEC; [13]): 5.1 ± 0.81%

MKQKMMARLLRTSFALLFLGLFGVLGAATISCRNEEGKAVDWFTFYKLPKRQNKESGETGLEYLYLDSTTRSWRKSEQLMNDTKSVLGRTLQQLYEAYASKSNNTAYLIYNDGVPKPVNYSRKYGHTKGLLLWNRVQGFWLIHSIPQFPPIPEEGYDYPPTGRRNGQSGICITFKYNQYEAIDSQLLVCNPNVYSCSIPATFHQELIHMPQLCTRASSSEIPGRLLTTLQSAQGQKFLHFAKSDSFLDDIFAAWMAQRLKTHLLTETWQRKRQELPSNCSLPYHVYNIKAIKLSRHSYFSSYQDHAKWCISQKGTKNRWTCIGDLNRSPHQAFRSGGFICTQNWQIYQAFQGLVLYYESCK [Q8WZ79]
percentage of EdU-negative (MCF7; [14]): 28.9 ± 1.8%
percentage of EdU-negative (MCF7; [15]): 32.3 ± 0.53%
percentage of EdU-negative (hTERT-HMEC; [14]): 5.48 ± 0.48%
percentage of EdU-negative (hTERT-HMEC; [15]): 15.5 ± 1.6%

MKRLVCVLLVCSSAVAQLHKDPTLDHHWHLWKKTYGKQYKEKNEEAVRRLIWEKNLKFVMLHNLEHSMGMHSYDLGMNHLGDMTSEEVMSLMSSLRVPSQWQRNITYKSNPNRILPDSVDWREKGCVTEVKYQGSCGACWAFSAVGALEAQLKLKTGKLVSLSAQNLVDCSTEKYGNKGCNGGFMTTAFQYIIDNKGIDSDASYPYKAMDQKCQYDSKYRAATCSKYTELPYGREDVLKEAVANKGPVSVGVDARHPSFFLYRSGVYYEPSCTQNVNHGVLVVGYGDLNGKEYWLVKNSWGHNFGEEGYIRMARNKGNHCGIASFPSYPEI
percentage of EdU-negative (MCF7; [3]): 25.8 ± 0.69%
percentage of EdU-negative (MCF7; protein concentration 0.225 µM): 28.92 ± 0.25%
percentage of EdU-negative (hTERT-HMEC; [3]): 4.72 ± 0.47%
percentage of EdU-negative (hTERT-HMEC; protein concentration 0.225 µM): 9.97 ± 2.1%

MKRSVAVWLLVGLSLGVPQFGKGDICDPNPCENGGICLPGLADGSFSCECPDGFTDPNCSSVVEVASDEEEPTSAGPCTPNPCHNGGTCEISEAYRGDTFIGYVCKCPRGFNGIHCQHNINECEVEPCKNGGICTDLVANYSCECPGEFMGRNCQYKCSGPLGIEGGIISNQQITASSTHRALFGLQKWYPYYARLNKKGLINAWTAAENDRWPWIQINLQRKMRVTGVITQGAKRIGSPEYIKSYKIAYSNDGKTWAMYKVKGTNEDMVFRGNIDNNTPYANSFTPPIKAQYVRLYPQVCRRHCTLRMELLGCELSGCSEPLGMKSGHIQDYQITASSIFRTLNMDMFTWEPRKARLDKQGKVNAWTSGHNDQSQWLQVDLLVPTKVTGIITQGAKDFGHVQFVGSYKLAYSNDGEHWTVYQDEKQRKDKVFQGNFDNDTHRKNVIDPPIYARHIRILPWSWYGRITLRSELLGCTEEE
percentage of EdU-negative (MCF7; [16]): 25.7 ± 1.6%
percentage of EdU-negative (MCF7; [17]): 30.6 ± 1.9%
percentage of EdU-negative (hTERT-HMEC; [16]): 4.79 ± 0.32%
percentage of EdU-negative (hTERT-HMEC; [17]): 47.8 ± 1.9%
